Measurements taken from US20260242735A1 (UNIVERSIT T BASEL, published 2026).

What was measured:
Assay in all cases: flow cytometry, mutant on cells, IgG
human CD33 P19W = human CD33 P19W (human, UniProt P20138 18-364)
Procedure: (§1) An alanine scan on human CD33 was performed to the determine the residues on CD33 that are involved in binding to the antibodies investigated. […] Briefly, a mutation library of CD33 was created by high-throughput, site-directed mutagenesis. Each residue was individually mutated to alanine, with alanine codons mutated to serine. The mutant library was arrayed in 384-well microplates and transiently transfected into HEK293-T. Following transfection, cells were incubated with the indicated antibodies (IgG or Fab) at concentrations pre-determined using an independent immunofluorescence titration curve on wild type CD33. […] Binding of each antibody to each mutant clone was determined in duplicates. For each point, background fluorescence was subtracted from the raw data, which were then normalized to antibody reactivity with wild type CD33.
(§2) Antibodies were screened for binding to the human CD33 variants in IgG format. […] For each mutation, background fluorescence was subtracted from the raw data, which were then normalized to antibody reactivity with wild-type CD33.

human CD33 N20L = human CD33 N20L (human, UniProt P20138 18-364)
Procedure: as §1, §2

human CD33 N20Y = human CD33 N20Y (human, UniProt P20138 18-364)
Procedure: as §1, §2

human CD33 N20V = human CD33 N20V (human, UniProt P20138 18-364)
Procedure: as §1, §2

human CD33 F21S = human CD33 F21S (human, UniProt P20138 18-364)
Procedure: as §1, §2

human CD33 W22G = human CD33 W22G (human, UniProt P20138 18-364)
Procedure: as §1, §2

human CD33 W22S = human CD33 W22S (human, UniProt P20138 18-364)
Procedure: as §1, §2

human CD33 W22Q = human CD33 W22Q (human, UniProt P20138 18-364)
Procedure: as §1, §2

human CD33 Q24V = human CD33 Q24V (human, UniProt P20138 18-364)
Procedure: as §1, §2

human CD33 Q24I = human CD33 Q24I (human, UniProt P20138 18-364)
Procedure: as §1, §2

human CD33 Q24R = human CD33 Q24R (human, UniProt P20138 18-364)
Procedure: as §1, §2

human CD33 V25S = human CD33 V25S (human, UniProt P20138 18-364)
Procedure: as §1, §2

human CD33 V25L = human CD33 V25L (human, UniProt P20138 18-364)
Procedure: as §1, §2

human CD33 T42K = human CD33 T42K (human, UniProt P20138 18-364)
Procedure: as §1, §2

human CD33 F44E = human CD33 F44E (human, UniProt P20138 18-364)
Procedure: as §1, §2

human CD33 P46F = human CD33 P46F (human, UniProt P20138 18-364)
Procedure: as §1, §2

human CD33 P46Y = human CD33 P46Y (human, UniProt P20138 18-364)
Procedure: as §1, §2

human CD33 P46D = human CD33 P46D (human, UniProt P20138 18-364)
Procedure: as §1, §2

human CD33 I47S = human CD33 I47S (human, UniProt P20138 18-364)
Chain of human CD33 I47S (P20138 18-364 I47S limits assumed): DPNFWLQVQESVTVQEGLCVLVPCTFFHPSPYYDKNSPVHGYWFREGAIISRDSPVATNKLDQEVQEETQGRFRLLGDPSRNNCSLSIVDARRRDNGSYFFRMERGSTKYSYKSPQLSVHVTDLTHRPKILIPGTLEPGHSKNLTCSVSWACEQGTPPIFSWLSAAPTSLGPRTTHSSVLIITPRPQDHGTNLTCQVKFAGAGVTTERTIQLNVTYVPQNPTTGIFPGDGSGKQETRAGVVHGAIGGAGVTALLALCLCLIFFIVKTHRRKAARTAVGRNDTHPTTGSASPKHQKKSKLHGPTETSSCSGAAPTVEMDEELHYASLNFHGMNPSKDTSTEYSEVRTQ
Procedure: as §1, §2

Chain of human CD33 W22Q (P20138 18-364 W22Q limits assumed): as the sequence (P20138 18-364 I47S limits assumed) above, with W5Q, S30I counted along it
Chain of human CD33 F44E (P20138 18-364 F44E limits assumed): as the sequence (P20138 18-364 I47S limits assumed) above, with F27E, S30I counted along it
Chain of human CD33 T42K (P20138 18-364 T42K limits assumed): as the sequence (P20138 18-364 I47S limits assumed) above, with T25K, S30I counted along it
Chain of human CD33 N20L (P20138 18-364 N20L limits assumed): as the sequence (P20138 18-364 I47S limits assumed) above, with N3L, S30I counted along it
Chain of human CD33 F21S (P20138 18-364 F21S limits assumed): as the sequence (P20138 18-364 I47S limits assumed) above, with F4S, S30I counted along it
Chain of human CD33 N20V (P20138 18-364 N20V limits assumed): as the sequence (P20138 18-364 I47S limits assumed) above, with N3V, S30I counted along it
Chain of human CD33 V25L (P20138 18-364 V25L limits assumed): as the sequence (P20138 18-364 I47S limits assumed) above, with V8L, S30I counted along it
Chain of human CD33 W22S (P20138 18-364 W22S limits assumed): as the sequence (P20138 18-364 I47S limits assumed) above, with W5S, S30I counted along it
Chain of human CD33 V25S (P20138 18-364 V25S limits assumed): as the sequence (P20138 18-364 I47S limits assumed) above, with V8S, S30I counted along it
Chain of human CD33 P46Y (P20138 18-364 P46Y limits assumed): as the sequence (P20138 18-364 I47S limits assumed) above, with P29Y, S30I counted along it
Chain of human CD33 Q24R (P20138 18-364 Q24R limits assumed): as the sequence (P20138 18-364 I47S limits assumed) above, with Q7R, S30I counted along it
Chain of human CD33 Q24V (P20138 18-364 Q24V limits assumed): as the sequence (P20138 18-364 I47S limits assumed) above, with Q7V, S30I counted along it
Chain of human CD33 Q24I (P20138 18-364 Q24I limits assumed): as the sequence (P20138 18-364 I47S limits assumed) above, with Q7I, S30I counted along it
Chain of human CD33 W22G (P20138 18-364 W22G limits assumed): as the sequence (P20138 18-364 I47S limits assumed) above, with W5G, S30I counted along it
Chain of human CD33 N20Y (P20138 18-364 N20Y limits assumed): as the sequence (P20138 18-364 I47S limits assumed) above, with N3Y, S30I counted along it
Chain of human CD33 P19W (P20138 18-364 P19W limits assumed): as the sequence (P20138 18-364 I47S limits assumed) above, with P2W, S30I counted along it
Chain of human CD33 P46F (P20138 18-364 P46F limits assumed): as the sequence (P20138 18-364 I47S limits assumed) above, with P29F, S30I counted along it
Chain of human CD33 P46D (P20138 18-364 P46D limits assumed): as the sequence (P20138 18-364 I47S limits assumed) above, with P29D, S30I counted along it

Binder	Mean % WT Binding (human CD33 P19W) [% WT binding]	Mean % WT Binding (human CD33 N20L) [% WT binding]	Mean % WT Binding (human CD33 N20Y) [% WT binding]	Mean % WT Binding (human CD33 N20V) [% WT binding]	Mean % WT Binding (human CD33 F21S) [% WT binding]	Mean % WT Binding (human CD33 W22G) [% WT binding]	Mean % WT Binding (human CD33 W22S) [% WT binding]	Mean % WT Binding (human CD33 W22Q) [% WT binding]	Mean % WT Binding (human CD33 Q24V) [% WT binding]	Mean % WT Binding (human CD33 Q24I) [% WT binding]	Mean % WT Binding (human CD33 Q24R) [% WT binding]	Mean % WT Binding (human CD33 V25S) [% WT binding]	Mean % WT Binding (human CD33 V25L) [% WT binding]	Mean % WT Binding (human CD33 T42K) [% WT binding]	Mean % WT Binding (human CD33 F44E) [% WT binding]	Mean % WT Binding (human CD33 P46F) [% WT binding]	Mean % WT Binding (human CD33 P46Y) [% WT binding]	Mean % WT Binding (human CD33 P46D) [% WT binding]	Mean % WT Binding (human CD33 I47S) [% WT binding]
Refmab #1 (antibody, human IgG1, V domains shown, Tested in IgG format; human IgG1 (Absolute Antibody hP67.6, Cat. No. Ab00283-10.0); also called hP67.6) VH: EVQLVQSGAEVKKPGSSVKVSCKASGYTITDSNIHWVRQAPGQSLEWIGYIYPYNGGTDYNQKFKNRATLTVDNPTNTAYMELSSLRSEDTAFYYCVNGNPWLAYWGQGTLVTVSS VL: DIQLTQSPSTLSASVGDRVTITCRASESLDNYGIRFLTWFQQKPGKAPKLLMYAASNQGSGVPSRFSGSGSGTEFTLTISSLQPDDFATYYCQQTKEVPWSFGQGTKVEVK	73.8	78.5	0.4	4.2	6.4	89.6	74.3	99.5	92.6	80	95.1	106	99.2	106	92.7	1	0.9	0.6	105
Refmab #2 (antibody, human IgG1, V domains shown, Tested in IgG format; human IgG1 Fc silent (PG-LALA)) VH: QVQLVQSGAEVKKPGSSVKVSCKASGGTFSDYAISWVRQAPGQGLEWMGRIIPILGVADYAQKFQGRVTITADKSTRTAYMELSSLRSEDTAVYYCARNWADAFDIWGQGTMVTVSS VL: DIQLTQSPSSLSASVGDRVTITCRASQGISSVLAWYQQKPGKAPKLLIYDASSLESGVPSRFSGSGSGTDFTLTISSLQPEDFATYYCQQFDSSITFGQGTKLEIK	88.3	95.8	34.7	116	115	113	105	108	99.3	96.8	96.8	110	109	95.5	1.7	80.9	60.1	100	3.4
Refmab #3 (antibody, human IgG1, V domains shown, Tested in IgG format; human IgG1 Fc silent (PG-LALA)) VH: QVQLVQSGAEVKKPGSSVKVSCKASGYTFTDYNMHWVRQAPGQGLEWIGYIYPYNGGTGYNQKFKSKATITADESTNTAYMELSSLRSEDTAVYYCARGRPAMDYWGQGTLVTVSS VL: DIQMTQSPSSLSASVGDRVTITCRASESVDNYGISFMNWFQQKPGKAPKLLIYAASNQGSGVPSRFSGSGSGTDFTLTISSLQPDDFATYYCQQSKEVPWTFGQGTKVEIK	71.2	9.4	0.6	0.5	3.4	9	1.4	12.5	24.5	61.3	74.6	104	97.8	103	33.3	0.2	0.8	0.6	94.9
